The target of experiment [1] is βAPP-C100 binding site on NGF-treated PC12 cells. Nature of the experiment: saturation binding of 35S-βAPP-C100 to NGF-treated PC12 cells, filtration, 4° C.
Experiment [2] has the same target. In words: inhibition of 35S-βAPP-C100 binding to NGF-treated PC12 cells by unlabeled βAPP-C100.
Experiment [3] has the same target. In words: competition with 35S-βAPP-C100 for binding to NGF-treated PC12 cells.

Some results are limits rather than exact numbers.

In general, Kd refers to the concentration at which binding is half-saturated. A low value points to higher affinity. As a reminder, the IC50 is the point on the concentration scale where inhibition reaches its midpoint. A high value points to weaker potency. Turning to “flag-βAPP-C100 (from UniProt P05067-4) (ligand)”, the Kd in experiment [1] came out at 0.81 nM. Further, the IC50 in experiment [2] is 1.7 nM.

In experiment [3], “Phe687-βAPP-C100 (from UniProt P05067-4) (ligand)” registered an IC50 greater than 14 nM and a times less potent than the native form greater than 20 times.

The values above are taken from patent publication US6083713.
